Assay results reported in patent US20140314667A1 (Amgen, published 2014).
Several values for one entry are separate records, joined by “and”; a condition that tells them apart may be missing. Identical values can stand only once.

Key:
[1] = target: T1, EGFRvIII-Rabbit Fc fusion protein (human; rabbit, UniProt P00533 25-645); assay: ELISA, recombinant antibody supernatant on coated EGFRvIII-RbFc, 1.5 ug/ml
T1 construct: Made in 293F cells; also called EGFRvIII-RbFc; EGFRvIII-Rab Ig Fc fusion protein; not shown: Hinge-CH2-CH3 domain of rabbit IgG (721 bp fragment)
Method: The secretion ELISA tests were performed as follows. For Ab secretion, 2 μg/mL of Goat anti-human IgG H+L and for antigen binding, 1.5 μg/ml of EGFRvIII-Rab Ig Fc fusion protein was coated onto Costar Labcoat Universal Binding Polystyrene 96 well plates and held overnight at four degrees. The plates were washed five times with dH₂O. Recombinant antibodies were titrated 1:2 for 7 wells from the undiluted minilipofection supernatant. The plates were washed five times with dH₂O. A goat anti-human IgG Fc-specific HRP-conjugated antibody was added at a final concentration of 1 μg/mL for 1 hour at RT for the secretion plates and binding plates detected with 1 μg/ml Rb anti Hu Fc for 1 hour at room temperature. The plates were washed five times with dH₂O. The plates were developed with the addition of TMB for 30 minutes and the ELISA was stopped by the addition of 1 M phosphoric acid. Each ELISA plate was analyzed to determine the optical density of each well at 450 nm.

[2] = target: T2, EGFRvIII, full length, expressed on cells (human, UniProt P00533 25-1210); assay: cell-based or functional assay
[3] = target: T2, EGFRvIII, full length, expressed on …; assay: FACS on NR6 M cells, antibody at 0.25 ug/ml, no glutathione
Method: XenoMax derived IgG1 recombinant antibodies were expressed, purified and quantitated as described previously. Antibodies were further assayed for their ability to internalize the EGFRvIII receptor in NR6 M cells. […] The cells were washed with cold 10% FCS in PBS and secondary antibody (SS Alexa antihuman IgG Fab) at 3 μg/ml Fab was added and incubated for 7 mins on ice. The cells were washed with cold 10% FCS in PBS once and then resuspended in cold media. Next, two sets of the triplicate were incubated at 37° C. and the remaining set was incubated at 4° C. for 1 hr. After that the cells incubated at 4° C. and one set of the cells incubated at 37° C. were treated with glutathione (as previously mentioned) for 1 hr on ice. Then the cells were washed and resuspended in 100 μl of cold 1% FCS in PBS and analyzed by FACS. The % internalization was calculated from the geometric mean obtained from the FACS analysis [(mean at 37° C. with glutathione−mean at 4° C. with glutathione)/(mean at 37° C. without glutathione−mean at 4 C with glutathione)].

[4] = target: T2, EGFRvIII, full length, expressed on …; assay: cell-based or functional assay; remark: listed apart in the source

Row | Binder | Titer, antigen binding [1] | % internalization [2] | FACS Geometric mean, without glutathione 37 C [3] | IC50 of cell growth inhibition (CellTiter-Glo, U251vIII cells) [4]
1 | SC-EGFRvIII-XG1-318 (antibody, IgG1, V domains shown, Recombinant IgG1 kappa; also called mAb ID 141A10) VH: QVQLVESGGGVVQPGRSLRLSCVASGFTLSSYGMHWVRQAPGKGLEWVAVTSYDGSKKDYADSVKGRFTISRDNSKNTLYLQMNSLRAEDTAVYYCVSEGYCDSSSCYKYYYYGMDVWGQGTTVTVSS VL: DIVMTQSPLSLPVTPGEPASISCRSSQSLLYRNGNNYLDWYLQRPGQSPQLLIYLGSNRASGVPDRFSGSGSGTDFTLKISRVEAEDVGVYYCMQALQTPRTFGQGTKVEIK | 64 titer (1:x dilution of supernatant) | – | – | –
2 | SC-EGFRvIII-XG1-333 (antibody, IgG1, V domains shown, Recombinant IgG1 kappa; also called mAb ID 132D8) VH: QVQLVESGGGVVQPGRSLRLSCVASGFTLSSYGMHWVRQALGKGLEWVAVTSYDGSKKDYADSVKGRFTISRDNSKNTLYLQMNSLRAEDTAVYYCVSEGYCDSTSCYKYYYYGMDVWGQGTTVTVSS VL: DIVMTQSPLSLPVTPGEPASISCRSSQSLLYRNGNNYLDWYLQRPGQSPQLLIYLGSNRASGVPDRFSGSGSGTDFTLKISRVEAEDVGVYYCMQALQTPRTFGQGTKVEIK | > 64 titer (1:x dilution of supernatant) | – | – | –
3 | SC-EGFRvIII-XG1-123/124 (antibody, IgG1, V domains shown, Recombinant IgG1 kappa; also called mAb ID 129A7) VH: QVQLVESGGGVVQPGRSLRLSCAASGFTLSSYGMHWVRQAPGKGLEWVAVMSYDGSKEDYADSVKGRFTISRDNSENTLYLQMNSLRAEDTAVYYCVSEGYCSSRSCYKYYYYGMDVWGQGTTVTVSS VL: DIVMTQSPLSLPVTPGEPASISCRSSQSLLYRNGNNYLDWYLQKPGQSPQLLIYLGSNRASGVPDRFSGSGSGTDFTLNISRVEAEDVGHYYCMQALQTPRTFGQGTKVEIK | > 64 titer (1:x dilution of supernatant) | – | – | –
4 | SC-EGFRvIII-XG1-342 (antibody, IgG1, V domains shown, Recombinant IgG1 kappa; also called mAb ID 124D4) VH: QVQLVESGGGVVQPGRSLRLSCVASGFTLSSYGMHWVRQAPGKGLEWVAVTSYDGSKKDYADSVKGRFTISRDNSKNTLYLQMNSLRAEDTAVYYCVSEGYCDSTSCYKYYYYGMDVWGQGTTVTVSS VL: DIVMTQSPLSLPVTPGEPASISCRSSQSLLYRNGNNYLDWYLQRPGQSPQLLIYLGSNRASGVPDRFSGSGSGTDFTLKISRVEAEDVGVYYCMQALQTPRTFGQGTKVEIK | > 64 titer (1:x dilution of supernatant) | – | – | –
5 | SC-EGFRvIII-XG1-211 (antibody, IgG1, V domains shown, Recombinant IgG1 kappa; also called sc211; SC211) VH: QVQLVESGGGVVQPGRSLRLSCVASGFTLSSYGMHWVRQAPGKGLEWVAVTSYDGSKKDYADSAKGRFTISRDNSKNTLYLQMNSLRAEDTAVYYCVSEGYCSSSSCYKYYYYGMDVWGQGTTVTVSS VL: DIVMTQSPLSLPVTPGEPASISCRSSQSLLYRNGNNYLDWYLQRPGQSPQLLIYLGSNRASGVPDRFSGSGSGTDFTLKISRVEAEDVGVYYCMQALQTPRTFGQGTKVEIK | > 64 titer (1:x dilution of supernatant) | 21.6% | 20.8 geometric mean | –
6 | Ab 131-DM1 conjugate (antibody, V domains shown, DM1 linked through SMCC (MCC) to amine groups of the antibody, 3.0-3.5 DM1 molecules per antibody; sites not stated) VH: QVQLVESGGGVVQSGRSLRLSCAASGFTFRNYGMHWVRQAPGKGLEWVAVIWYDGSDKYYADSVRGRFTISRDNSKNTLYLQMNSLRAEDTAVYYCARDGYDILTGNPRDFDYWGQGTLVTVSS VL: DTVMTQTPLSSHVTLGQPASISCRSSQSLVHSDGNTYLSWLQQRPGQPPRLLIYRISRRFSGVPDRFSGSGAGTDFTLEISRVEAEDVGVYYCMQSTHVPRTFGQGTKVEIK | – | – | – | 0.068 nM DM1 equivalents and 3 ng/mL
7 | anti-EGFRvIII antibody 131 (antibody, human IgG1, V domains shown, Recombinant human IgG1 kappa; also called sc131) VH: QVQLVESGGGVVQSGRSLRLSCAASGFTFRNYGMHWVRQAPGKGLEWVAVIWYDGSDKYYADSVRGRFTISRDNSKNTLYLQMNSLRAEDTAVYYCARDGYDILTGNPRDFDYWGQGTLVTVSS VL: DTVMTQTPLSSHVTLGQPASISCRSSQSLVHSDGNTYLSWLQQRPGQPPRLLIYRISRRFSGVPDRFSGSGAGTDFTLEISRVEAEDVGVYYCMQSTHVPRTFGQGTKVEIK | > 64 titer (1:x dilution of supernatant) | – | – | –
8 | antibody 13.1.2 (antibody, V domains shown) VH: QVQLVESGGGVVQPGRSLRLSCAASGFTFSSYGMHWVRQAPGKGLEWVAVIWYDGSNKYYVDSVKGRFTISRDNSKNTLYLQMNSLRAEDTAVYYCARDGWQQLAPFDYWGQGTLVTVSS VL: not shown | – | 82.5% | 22.1 geometric mean | –
9 | SC-EGFRvIII-XG2-170 (antibody, IgG1, V domains shown, kappa light chain; also called sc170; SC170) VH: QVQLQQSGPGLVKPSQTLSLTCAISGDSVSSNNAAWNWIRQSPARGLEWLGRTYYRSKWYNDYVVSVKSRITINPDTSKNQFSLQLNSVTPEDTAVYYCVRATAFDYWGQGTLVTVSS VL: AIVLTQTPLSSPVTLGQPASISCRSSQSLVHRDGNTYLSWLQQRPGQPPRLLIYKISNRFSGVPDRFSGSGAGTDFTLKISRVEPDDVGVYYCMHTTQLPWTFGQGTKVEIK | > 64 titer (1:x dilution of supernatant) | 20.1% | 20 geometric mean | –
10 | SC-EGFRvIII-XG1-139 (antibody, IgG1, V domains shown, Recombinant IgG1 kappa; also called sc139; SC139) VH: EVQVLESGGGLVQPGGSLRLSCAASGFTFSSYAMSWVRQAPGKGLEWVSAISGSGGSTNYADSVKGRFTISRDNSKNTLYLQMNSLRAEDTAVYYCAGSSGWSEYWGQGTLVTVSS VL: DIQMTQSPSSLSASVGDRVTITCRASQGIRNNLAWYQQKPGKAPKRLIYAASNLQSGVPSRFTGSGSGTEFTLIVSSLQPEDFATYYCLQHHSYPLTSGGGTKVEIK | > 64 titer (1:x dilution of supernatant) | 80.8% | 22.6 geometric mean | –
11 | SC-EGFRvIII-XG1-250 (antibody, IgG1, V domains shown, Recombinant IgG1 kappa; also called sc250; SC250) VH: EGQLLESGGGWVQPGESLRLSCAASGFTFSSYAMSWVRQAPGKGLEWVSAISGSGGSTNYADSVKGRFTISRDNSKNTLYLQVNSLRVEDTAVYYCAGSSGWSEYWGQGTLVTVSS VL: DIQMTQSPSSLSASVGDSVTITCRTSQGIRKNLGWYQQKPGKAPKRLIYAASSLQSGVPSRFSGSGSGTEFTLTISRLQPEDFATYYCLQHHSYPLTFGGGTRVEIR | > 64 titer (1:x dilution of supernatant) | 16.7% | 24.1 geometric mean | –
12 | antibody 095 (antibody, IgG1, V domains shown, Recombinant IgG1 kappa; also called sc95; SC95) VH: QVQLQESGPFLVKPSQTLSLTCTVSGGSISSGGYYWSWIRQHPGKGLEWIGFIYYRGNTYYNPSLKSRVTISVDTSKNQFSLKLSSVTAADTAVYYCARDGYCSRTGCYGGWFDPWGQGTLVTVSP VL: DIVMTQTPLSSPVTLGQPASISCRSSQSLIHTDGNIYLSWLQQRPGQPPRLLIYKISNRFSGVPDRFSGSGAGTDFTLKISRVEAEDVGVYYCMQGTQFPITFGQGTRLEIK | – | 72.4% | 22.6 geometric mean | –
13 | SC-EGFRvIII-XG2-150 (antibody, IgG1, V domains shown, kappa light chain; also called sc150; SC150) VH: QVQLQQSGPGLVKPSQTLSLTCAISGDSVSSYSSAWNWIRQSPSRGLEWLGRAYHRSRWYYEYAVSVKSRINITPDTSKNQFSLQLNSVTPEDTAVYYCARGSRFDYWGQGTLVTVSS VL: DIVMTQTPLSSPVTLGQPASISCRSSQSLVHRDGNTYLSWLQQRPGQPPRLLIYKISNRFSGVPDRFSGSGAGTDFTLKISRVEAEDVGIYFCMHTTQFPWTFGQGTRVEIK | > 64 titer (1:x dilution of supernatant) | 20% | 20.3 geometric mean | –
